# In patent publication US20230079955A1 (POSEIDA THERAPEUTICS, published 2023):
# T1: His-tagged p62/p58 MUC1 protein (UniProt P15941 1036-1155, limits assumed)
# T1 construct: domain: p62/p58; Soluble staining reagent for the CAR on T cells, detected with an anti-His secondary antibody; not shown: His tag
# T1 sequence (looked up): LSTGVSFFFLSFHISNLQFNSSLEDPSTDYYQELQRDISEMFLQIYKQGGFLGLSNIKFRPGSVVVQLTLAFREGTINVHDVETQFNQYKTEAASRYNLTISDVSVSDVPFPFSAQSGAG
# B1: "L3H4" CAR (humanized MUC1-C scFv chimeric antigen receptor) (other)
# chain: EILLTQSPDFQSVTPKEKVTFTCRASQSIGTSIHWYQQKPNQSPKLLIKYASESISGVPSRFSGSGSGTDFTLSINSVESEDIADYYCQQSNNWPLTFGQGTKLEIKGGGGSGGGGSGGGGSQVQLVQSGAEVKKPGSSVKISCKTSGYAFSNFWMNWVKQRPGQGLEWIGQIYPGDGDTNYNGKFKGRATLTADKSSSTAYMELSSLRSEATAVYFCARSYYRSAWFAYWGQGTLVTVSSTTTPAPRPPTPAPTIASQPLSLRPEACRPAAGGAVHTRGLDFACDIYIWAPLAGTCGVLLLSLVITLYCKRGRKKLLYIFKQPFMRPVQTTQEEDGCSCRFPEEEEGGCELRVKFSRSADAPAYKQGQNQLYNELNLGRREEYDVLDKRRGRDPEMGGKPRRKNPQEGLYNELQKDKMAEAYSEIGMKGERRRGKGHDGLYQGLSTATKDTYDALHMQALPPR
# notes: also called 13H4
# Tests used:
# [1] = target: MUC1 on MDA-MB-468.lucGFP cells (UniProt P15941 24-1255); assay: cell-based or functional assay
# MUC1 on MDA-MB-468.lucGFP cells, sequence (P15941 24-1255): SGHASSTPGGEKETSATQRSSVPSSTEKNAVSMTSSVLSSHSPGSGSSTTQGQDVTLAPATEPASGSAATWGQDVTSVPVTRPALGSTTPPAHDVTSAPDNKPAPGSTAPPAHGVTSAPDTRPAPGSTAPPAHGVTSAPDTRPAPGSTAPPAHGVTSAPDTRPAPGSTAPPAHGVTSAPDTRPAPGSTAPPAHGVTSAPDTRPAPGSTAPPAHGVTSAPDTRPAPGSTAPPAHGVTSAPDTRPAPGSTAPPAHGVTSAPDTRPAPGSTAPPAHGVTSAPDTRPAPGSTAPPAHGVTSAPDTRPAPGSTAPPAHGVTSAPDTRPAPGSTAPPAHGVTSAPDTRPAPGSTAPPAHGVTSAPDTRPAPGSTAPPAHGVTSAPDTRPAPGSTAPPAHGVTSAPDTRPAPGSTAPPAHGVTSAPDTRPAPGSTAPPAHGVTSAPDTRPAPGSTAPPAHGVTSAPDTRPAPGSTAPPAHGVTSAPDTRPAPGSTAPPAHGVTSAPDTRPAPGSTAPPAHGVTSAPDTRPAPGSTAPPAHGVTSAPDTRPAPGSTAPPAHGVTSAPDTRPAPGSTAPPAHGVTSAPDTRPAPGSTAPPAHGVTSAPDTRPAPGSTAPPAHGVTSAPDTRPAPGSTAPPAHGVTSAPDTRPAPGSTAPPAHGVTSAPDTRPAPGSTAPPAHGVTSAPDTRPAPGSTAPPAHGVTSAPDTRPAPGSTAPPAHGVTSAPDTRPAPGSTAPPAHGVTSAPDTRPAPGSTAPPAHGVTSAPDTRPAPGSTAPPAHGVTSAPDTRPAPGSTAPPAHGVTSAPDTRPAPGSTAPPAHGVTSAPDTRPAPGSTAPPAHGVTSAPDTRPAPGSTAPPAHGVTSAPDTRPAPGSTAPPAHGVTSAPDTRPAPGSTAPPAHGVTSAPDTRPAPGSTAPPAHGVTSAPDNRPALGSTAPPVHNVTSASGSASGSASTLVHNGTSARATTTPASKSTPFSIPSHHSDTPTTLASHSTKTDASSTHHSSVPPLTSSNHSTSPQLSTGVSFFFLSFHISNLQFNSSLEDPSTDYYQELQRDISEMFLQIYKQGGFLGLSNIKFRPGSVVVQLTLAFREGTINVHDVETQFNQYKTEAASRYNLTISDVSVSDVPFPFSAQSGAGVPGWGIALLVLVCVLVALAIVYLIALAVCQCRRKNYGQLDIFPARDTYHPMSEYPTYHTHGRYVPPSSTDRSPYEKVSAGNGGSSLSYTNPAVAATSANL
# [2] = target: T1, His-tagged p62/p58 MUC1 protein; assay: flow cytometry of CAR-T cells (anti-CD3/CD28 bead re-activated, 48 hours) stained with His-tagged p62/p58 MUC1 protein and anti-His secondary antibody
# Source text: (§1) MUC1-C candidate CARs were subcloned into a tricistronic piggyBac transposon (EF1alpha promoter-iC9 Safety Switch-T2A-MUC1-C CAR-T2A-DHFR selection gene) and CAR-T cells were produced using pan T cells from a normal human blood donor as described herein (FIG. 6). Expression of each candidate CAR on the surface of piggyBac-modified cells was confirmed by FACS staining 19 days post-transposon delivery using an His-tagged p62/p58 MUC1 protein, followed by anti-His secondary antibody (FIG. 6). Specifically, cells were examined by flow cytometry for surface-expression of CAR on either mock transposed (blue) or anti-CD3/CD28 bead re-activated (red) cells (activation for 48 hours) that received transposon encoding CAR and data are shown as overlaid histograms; numbers represent percentage of cells expressing CAR on cell surface. All candidate MUC1-C CARs were expressed and detected on the surface of piggyBac-produced CAR-T cells (FIG. 7).
# [3] = target: T1, His-tagged p62/p58 MUC1 protein; assay: flow cytometry of CAR-T cells stained with His-tagged p62/p58 MUC1 protein and anti-His secondary antibody, day 19
# Source text: as §1
binder,measurement,setting,value
B1,Target cell killing area under the curve (AUC),[1],501
same,MFI (activated cells),[2],1960 MFI
same,MFI (non-activated cells),[3],695 MFI
